Results reported in US20110293610A1 (published 2011).

B1: I079C01 (scFv)
scFv: EVQLVESGGGLVQPGGSLRLSCAASGFTFSDYGMHWVRQRPGKGLEWIAFIGSDGSNKYYGDTVKGRFTISRDNAKNSLYLQMNSLRAEGTAVYYCARDWDMDVWGQGTMVTVSSGGGGSGGGGSGGGGSHVILTQPRSVSGSPGQSVTISCTGTSSDVGGYHYVSWYQQHPGKAPRLMIYEVTKRPSGVSNRFSGSKSGNTASLTISGVQAEDEADYYCSSYTSASTVIFGGGTKLTVLG
B2: I084C04 (scFv)
scFv: VQLVQSGAEVKKPGASVKVSCKASGYTFTSYGISWVRQAPGQGLEWMGWINPNSGGTNYAQKFQGRVTMTRDTSISTAYMELSRLRSDDTAVYYCARNLWGLDYWGKGTMVTVSSGGGGSGGGGSGGGGSSELTQDPAVSVALGQTVRITCQGDSLRSYYASWYQQKPGQAPVLVIYGKNNRPSGIPDRFSGSSSGNTASLTITGAQAEDEADYYCNSRDSSGNHVVFGGGTKLTVLG
B3: I080E05 (scFv)
scFv: EVQLVQSGAAVKKPGASVKVSCKASGYTFTTYYIHWVRQAPGQGLEWMGIINPVNGNTIYAQKFQGRVTMTRDTSTGTVNMELSSLRSEDTAVFYCVREGGGDAYDVAPYYFDYWGQGTLVTVSSGGGGSGGGGSGGGGSAQAVLTQPSSVSGAPGQRVTISCTGSSSNIGDGYDVHWYQQLPGTAPKLLIYGNSHRPSGVPDRFSGSKSDTSASLAITGLQVEDEADYFCHSYDSSVSGWIFGGGTKLTVLG
B4: I083B12 (scFv)
scFv: QVQLVQSGAEVKKPGASVKVSCKASEYTFYNHYMHWVRQAPGQGLEWMGFINPSGDAAWYAQKFQGRVTLTRDTSTRTVYMELSGLTSEDTAVYYCARESGAGGYYYDDYWGKGTLVTVSSGGGGSGGGGSGGGGSALSYVLTQPPSVSVAPGKTASIPCGGNNIGSKSVQWYLQKAGQAPILVVYDDSDRPSGIPERFSGSNSGNTATLTITRVEAGDEADYYCQVWDSSSDHWFFGGGTKLTVLG
B5: I079B05 (scFv)
scFv: GVQLVESGGGLVKPGGSLRLSCATSGFRFSDYAMTWVRQAPGKGLEWVSSITGSGGGTHYAGSVRGRFTISRDNSKNTVYLQMNNLRPEDTAVYYCASFVLDYWGKGTLVTVSSGGGGSGGGGSGGGGSQSVLTQPASVSGSPGQSITISCTGTSSDVGGYNYVSWYQQHPGKAPKLMIYEGSKRPSGVSNRFSGSKSGNTASLTISGLQAEDEADYYCSSYTTRSTRVFGGGTKLTVLG
B6: I082G01 (scFv)
scFv: QMQLVQSGAEVKKPGASVKVSCKASGYTFTSYYMHWVRQAPGQGLEWMGLVHPNDGSVNYAQKFKGRVTMTRDTSTSTVYMELSSLRSDDTAVYYCARDRGSGWPNWYFDLWGQGTLVTVSSGGGGSGGGGSGGGGSDIQMTQSPSTLSASIGDRVTITCRASEGIYHWLAWYQQKPGKAPKLLIYKASSLASGAPSRFSGSGSGTDFTLTISSLQPDDFATYYCQQYSNYPLTFGGGTKLEIKH
B7: I079F06 (scFv)
scFv: QVQLVESGGGLVQPGGSLRLSCAASGFTFSSYWMSWVRQAPGKGLEWVANIKQDGSEKYYVDSVKGRFTISRDNAKNSLYLQMNSLRAEDTAVYYCARDNLHAAFDIWGRGTLVTVSGGGGGSGGGGSGGGGSDIQMTQSPSTLSASIGDRVTITCRASEGIYHWLAWYQQKPGKAPKLLIYKASSLASGAPSRFSGSGSGTDFTLTISSLQPDDFATYYCQQYSNYPLTFGGGTKLEIKR
B8: I079F08 (scFv)
scFv: QMQLVQSGGGVVQPGRSLRLSCAASGFTFSSYGMHWVRQAPGKGLEWVAVISYDGSIKYYADSVKGRFTISRDNSKNTLYLQMNSLRAEDTAVYYCARYYYHSSGSDAFDIWGQGTLVTVPSGGGGSGGGGSGGGGSQSVLTQPPSASGTPGQRVTISCSGSSSNIGSNTVNWYQRLPGAAPQLLIYNNNQRPSGVPDRFSGSKSGTSASLAISGLQSEDEADYYCAAWDDSLNGWVFGGGTKLTVLG
B9: I082A05 (scFv)
scFv: QVQLQQSGGGVVQPGRSLRLSCAASGFTYSSYAMHWVRQAPGKGLEWVAVISYDGSIKYYADSVKGRFTISRDNSKNTLYLQMNSLRAEDTAVYYCARDLDFDYWGKGTLVTVSSGGGGSGGGGSGGGGSQSVLTQPPSVSAAPGQKVTISCSGSTSNIGNNYVSWYQQHPGKAPKFMIYDVSKRPSGVSNRFSGSKSGNTASLTISGVQAEDEADYYCSSYTSASTVIFGGGTKLTVLG
B10: I079B12 (scFv)
scFv: EVQLVQSRGGVVQPGRSLRLSCAASGLTFSSYGMHWVRQAPGKGLEWVAVISYDGRNKYYADSVKGRFTTSRDNSKNTLYLQMNSLRAEDTAVYYCAKWTSSGAFDIWGRGTLVTVSSGGGGSGGGGSGGGGSDIQMTQSPSTLSASIGDRVTITCRASEGIYHWLAWYQQKPGKAPKLLIYKASSLASGAPSRFSGSGSGTDFTLTISSLQPDDFATYYCHQYSNYPLTFGGGTKLEIKR
B11: I082D07 (scFv)
scFv: EVQLVQSRGGVVQPGRSLRLSCAASGLTFSSYGMHWVRQAPGKGLEWVAVISYDGRNKYYADSVKGRFTTSRDNSKNTLYLQMNSLRAEDTAVYYCAKWTSSGAFDIWGRGTLVTVSSGGGGSGGGGSGGGGSDIQMTQSPSTLSASIGDRVTITCRASEGIYHWLAWYQQKPGKAPKLLIYKASSLASGAPSRFSGSGSGTDFTLTISSLQPDDFATYYCQQYSNYPLTFGGGTKLEIKR
B12: I080B01 (scFv)
scFv: QVQLVQSGAEVKKPGASVKVSCKASGYTFTNYYMHWVRQAPGQGLEWMGIINPRDVSTTYAQKFQGRATMTRDTSTSTVYMELNSLRSEDTAVYYCAREYSGYHYVEGGSYAMDVWGQGTMVTVSSGGGGSGGGGSGGGGSALSYVLTQPPSASGTPGQRVTITCSGSSSNIGNYYVNWYQQVSGTAPKLIIYRNNQRPSGVPDRFSGSKSGASASLAISGLRSEDEADYFCAAWDDSLREFVFGTGTKVTVLG
B13: I082B08 (scFv)
scFv: QVQLVQSGAEVKKPGGSVKVSCKASAYTFTRYYMHWVRQAPGQGLEWMGIINPSGGRTSYAQKFQGRVTMTRDTSTSTVYMELSSLRSEDTAVYYCARDLGIAGTIYFDYWGKGTLVTVSSGGGGSGGGGSGGGGSQSVLTQPPSVSAAPGQKVTISCSGSTSNIGNNYVSWYQQHPGKAPKLMIYDVSKRPSGVPDRFSGSKSGNSASLDISGLQSEDEADYYCAAWDDSLSEFLFGTGTKLTVLG
B14: I080G09 (scFv)
scFv: QVQLVQSGAEVKKPGASVRVSCKSSGYTFTNYGISWVRQAPGQGLEWMGWISNNNGKTYYAQKVQGRVTMTTDTSTSTDYMELRGLRSDDTAIYYCARDNGGGTIGFDYWGQGTLVTVSSGGGGSGGGGSGGGGSAQSVLTQPPSVSGAPGQRVTISCTGSSSNIGADYDVHWYQLLPGTAPKLLIYGNTNRPSGVPDRFSGSKSGTSASLTIAGLQAEDEADYYCQSYDSSLSGSVVFGGGTKLTVLG
B15: I084A01 (scFv)
scFv: QVQLVQSGGGLVQPGGSLRLSCAASGFTFSSYEMNWVRQAPGKGLEWVSYISSSGSTTYYADSVKGRFTISRDNAKNSLYLQMNSLRAEDTAVYYCARDTTDYWGQGTMVTVSSGGGGSGGGGSGGGGSQSVLTQPPSASGTPGQRVTISCSGSSSNIGSNTVNWYQRLPGAAPQLLIYNNDQRPSGIPDRFSGSKSGTSGSLVISGLQSEDEADYYCASWDDSLNGRVFGGGTKLTVLG
B16: I084B02 (scFv)
scFv: QVQLVQSGGGLVQPGGSLRLSCAASGFTFSSYEMNWVRQAPGKGLEWVSYISSSGSTTYYADSVKGRFTISRDNAKNSLYLQMNSLRAEDTAVYYCARDTTDYWGQGTLVTVSSGGGGSGGGGSGGGGSDIVMTQSPSTLSASVGDRVTITCRASQGISSWLAWYQQKPGRAPKVLIYKASTLESGVPSRFSGSGSGTDFTLTISSLQPEDFATYYCQQSYSTPWTFGQGTKLEIKR
B17: I080D03 (scFv)
scFv: QVQLVQSGAELKQPGTSVKVSCKASGYSFSSYGVTWVRQAPGQGLEWMGWVSGNRGNTQYAQKFQDRVRMTTDTSTSTAYMELRSLRPDDTAVYFCARVGIKAAAVDNFEYWGRGTTVTVSSGGGGSGGGGSGGGGSAQSVLTQPPSASGTPGQRVTITCSGSSSNIGDYYVNWYQQVSGTTPKLIIYRDDQRPSGVPDRFSGSKSGASASLAISGLRSEDEANYFCAAWDDSLREFAFGTGTKVTVLG
B18: I080A03 (scFv)
scFv: QVQLQQSGAELKQPGTSVKVSCKASGYSFSCYDVNWVRQAPGQGLEWMGRINPNSGNTHYAQKFQDRVTMTTDTSTSTAYMELNSLRPDDTAVYFCARVGIKAAAVDNFEYWGRGTTVTVSSGGGGSGGGGSGGGGSAQSVLTQPPSASGTPGQRVTITCSGSSSNIGDYYVNWYQQVSGTTPKLIIYRDDQRPSGVPDRFSGSKSGASASLAISGLRSEDEANYFCAAWDDSLREFAFGTGTKVTVLG

Target: T1, HIS-tagged B Lymphocyte Stimulator (human, UniProt Q9Y275 71-285)
T1 construct: Expressed in E. coli; also called HIS-B Lymphocyte Stimulator; histidine-tagged B Lymphocyte Stimulator; not shown: histidine tag from the pQE9 vector
T1 sequence (Q9Y275 71-285): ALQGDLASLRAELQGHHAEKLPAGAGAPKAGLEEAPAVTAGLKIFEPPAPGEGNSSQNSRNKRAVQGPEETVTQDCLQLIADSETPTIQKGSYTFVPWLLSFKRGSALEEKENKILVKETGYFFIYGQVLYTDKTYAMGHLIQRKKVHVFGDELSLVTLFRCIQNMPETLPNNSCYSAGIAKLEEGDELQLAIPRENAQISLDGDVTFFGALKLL
Test: BIAcore, periplasmic scFv over high density HIS-BLyS surface
Protocol: All BIAcore analysis was performed on BIAcore 2000 machines, using the BIAcore 2000 control software and evaluated using the BIAevaluation 3.0 software. A high density His-tagged B Lymphocyte Stimulator surface (>1000 RU HIS-B Lymphocyte Stimulator coupled) was prepared in flow cell 2 by amine coupling to a CM5 chip. A new CM5 chip was inserted into the BIAcore and a sensorgram started over flow cell 2 with HBS buffer at a flow rate of 5 μl/min. The NHS and EDC solution were mixed 1:1 before injecting 30 μl over the CM5 surface. Fifty μl HIS-B Lymphocyte Stimulator (at 10 μg/ml in Sodium acetate buffer, pH4) was injected and allowed to couple to the surface. Thirty μl of ethanolamine-HCl solution was then injected to block free NHS esters. Prior to using the chip, 10 μl of 4M Guanidine hydrochloride in HBS was injected over the surface to strip the surface of non-covalently bound B Lymphocyte Stimulator. A blank surface (no HIS-B Lymphocyte Stimulator) was also prepared over flow cell 1 so that non-specific binding effects can be subtracted from the HIS-B Lymphocyte Stimulator binding curves.
The 96-well plate containing periplasmic scFvs was secured inside the BIAcore. Two ml of 4M Guanidine hydrochloride in HBS was placed in a rack inside the BIAcore for regeneration of the HIS-B Lymphocyte Stimulator surface between samples. The sensorgram was run over flow cells 1 and 2 at a flow rate of […].

Row | Binder | binding result
1 | B1 | binds
2 | B2 | binds
3 | B3 | binds
4 | B4 | binds
5 | B5 | binds
6 | B6 | binds
7 | B7 | binds
8 | B8 | binds
9 | B9 | binds
10 | B10 | binds
11 | B11 | binds
12 | B12 | binds
13 | B13 | binds
14 | B14 | binds
15 | B15 | binds
16 | B16 | binds
17 | B17 | binds
18 | B18 | binds
